Paper PMC3187862

Biological target: T1, DoeX (AsnC/Lrp family) (Halomonas elongata DSM 2581T, UniProt E1V7V9 1-158)
T1 sequence: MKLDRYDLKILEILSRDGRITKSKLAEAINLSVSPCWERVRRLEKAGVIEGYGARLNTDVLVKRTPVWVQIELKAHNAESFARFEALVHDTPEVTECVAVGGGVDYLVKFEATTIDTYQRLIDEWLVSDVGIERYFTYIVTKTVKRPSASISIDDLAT
Experiment: EMSA

B1: F3 (dsDNA)
DNA 1: AGAGGCAGCCGGATATCGGTGACATGATCGTTTGGCGAGCGATTTC
DNA 2: GAAATCGCTCGCCAAACGATCATGTCACCGATATCCGGCTGCCTCT
binding result: binds
